Publication PMC5823669, “Multi-chaperone function modulation and association with cytoskeletal proteins are key features of the function of AIP in the pituitary gland” (Oncotarget, 2018)
Each block holds one binder with its values, some of them ahead of it.

How the values were obtained:
[1] = biological target: T1, GST-tagged human AIP p.A299V (human, UniProt O00170 1-330, p.A299V); assay: affinity purification with mass spectrometry; GST pull-down: 10 ug of purified GST-AIP bait (WT or variant) against 2 mg total protein of GH3 cell lysate; eluates of four experiments pooled; TMTsixplex labelling, Orbitrap MS; peptide intensities minus the GST control, variants given as fold of the WT experiment (WT = 1); details: one partner purified
T1 construct: AIP, human, UniProt O00170; also called GST-AIP A299V; not shown: GST, N-terminal, kept
T1 sequence (looked up): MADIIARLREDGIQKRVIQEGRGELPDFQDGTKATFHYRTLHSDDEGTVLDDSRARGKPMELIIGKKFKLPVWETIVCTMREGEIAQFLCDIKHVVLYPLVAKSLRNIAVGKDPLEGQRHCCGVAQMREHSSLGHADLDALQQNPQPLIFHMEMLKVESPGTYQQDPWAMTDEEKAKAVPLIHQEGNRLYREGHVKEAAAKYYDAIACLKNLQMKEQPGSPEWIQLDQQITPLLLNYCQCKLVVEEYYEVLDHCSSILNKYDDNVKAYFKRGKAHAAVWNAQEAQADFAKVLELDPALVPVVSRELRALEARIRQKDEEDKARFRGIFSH

[2] = biological target: T2, GST-tagged human AIP p.R304* (human, UniProt O00170 1-303); assay: as above; details: one partner purified
T2 construct: AIP, human, UniProt O00170; natural nonsense variant c.910C>T, p.R304*: stop codon in place of R304, truncated protein ending at residue 303; The C-terminal limit 303 follows from the printed p.R304*; also called GST-AIP R304*; not shown: GST, N-terminal, kept
T2 sequence (looked up): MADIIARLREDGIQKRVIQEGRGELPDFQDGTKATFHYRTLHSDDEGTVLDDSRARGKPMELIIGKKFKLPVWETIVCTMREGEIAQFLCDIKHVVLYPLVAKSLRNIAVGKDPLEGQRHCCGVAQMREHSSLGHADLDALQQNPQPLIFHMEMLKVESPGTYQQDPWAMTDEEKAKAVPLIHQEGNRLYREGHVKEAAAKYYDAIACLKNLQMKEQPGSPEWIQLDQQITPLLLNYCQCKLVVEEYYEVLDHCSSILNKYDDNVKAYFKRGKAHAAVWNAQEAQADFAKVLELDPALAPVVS

normalized intensity value (fold of the WT AIP pull-down) [1]: 0.2 fold of WT
B1: NDKA_RAT Nucleoside diphosphate kinase A (Nme1) (natural protein, R. norvegicus (endogenous in GH3), UniProt Q05982 1-152, looked up)
chain: MANSERTFIAIKPDGVQRGLVGEIIKRFEQKGFRLVGLKFIQASEDLLKEHYIDLKDRPFFSGLVKYMHSGPVVAMVWEGLNVVKTGRVMLGETNPADSKPGTIRGDFCIQVGRNIIHGSDSVESAEKEISLWFQPEELVDYKSCAQNWIYE
notes: Nucleoside diphosphate kinase A, rat, UniProt Q05982; also called NME/NM23 nucleoside diphosphate kinase 1; source: endogenous, GH3 cell lysate

normalized intensity value (fold of the WT AIP pull-down) [2]: 0.2 fold of WT
B2: TBB5_RAT Tubulin beta-5 chain (Tubb5) (natural protein, R. norvegicus (endogenous in GH3), UniProt P69897 1-444, looked up)
chain: MREIVHIQAGQCGNQIGAKFWEVISDEHGIDPTGTYHGDSDLQLDRISVYYNEATGGKYVPRAILVDLEPGTMDSVRSGPFGQIFRPDNFVFGQSGAGNNWAKGHYTEGAELVDSVLDVVRKEAESCDCLQGFQLTHSLGGGTGSGMGTLLISKIREEYPDRIMNTFSVVPSPKVSDTVVEPYNATLSVHQLVENTDETYCIDNEALYDICFRTLKLTTPTYGDLNHLVSATMSGVTTCLRFPGQLNADLRKLAVNMVPFPRLHFFMPGFAPLTSRGSQQYRALTVPELTQQVFDAKNMMAACDPRHGRYLTVAAVFRGRMSMKEVDEQMLNVQNKNSSYFVEWIPNNVKTAVCDIPPRGLKMAVTFIGNSTAIQELFKRISEQFTAMFRRKAFLHWYTGEGMDEMEFTEAESNMNDLVSEYQQYQDATAEEEEDFGEEAEEEA
notes: Tubulin beta-5 chain, rat, UniProt P69897; also called tubulin beta chain; source: endogenous, GH3 cell lysate

normalized intensity value (fold of the WT AIP pull-down) [2]: 0.3 fold of WT
B3: TBB2A_RAT Tubulin beta-2A chain (Tubb2a) (natural protein, R. norvegicus (endogenous in GH3), UniProt P85108 1-445, looked up)
chain: MREIVHIQAGQCGNQIGAKFWEVISDEHGIDPTGSYHGDSDLQLERINVYYNEAAGNKYVPRAILVDLEPGTMDSVRSGPFGQIFRPDNFVFGQSGAGNNWAKGHYTEGAELVDSVLDVVRKESESCDCLQGFQLTHSLGGGTGSGMGTLLISKIREEYPDRIMNTFSVMPSPKVSDTVVEPYNATLSVHQLVENTDETYSIDNEALYDICFRTLKLTTPTYGDLNHLVSATMSGVTTCLRFPGQLNADLRKLAVNMVPFPRLHFFMPGFAPLTSRGSQQYRALTVPELTQQMFDSKNMMAACDPRHGRYLTVAAIFRGRMSMKEVDEQMLNVQNKNSSYFVEWIPNNVKTAVCDIPPRGLKMSATFIGNSTAIQELFKRISEQFTAMFRRKAFLHWYTGEGMDEMEFTEAESNMNDLVSEYQQYQDATADEQGEFEEEEGEDEA
notes: Tubulin beta-2A chain, rat, UniProt P85108; source: endogenous, GH3 cell lysate
